Test results as given in article PMC3531493, “Inhibition of a NEDD8 Cascade Restores Restriction of HIV by APOBEC3G” (PLoS Pathogens, 2012).

T1: UBE2F, full-length (UniProt Q969M7 1-185)
T1 construct: UBE2F, NEDD8-conjugating enzyme, full-length; Unlabelled in the HSQC experiments on 15N-labelled RBX2 RING; also called NEDD8 E2; NEDD8-conjugating enzyme UBE2F; source: E. coli BL21(DE3)-Star or BL21(DE3), purified (Ni-NTA, TEV cleavage, SEC)
T1 sequence (looked up): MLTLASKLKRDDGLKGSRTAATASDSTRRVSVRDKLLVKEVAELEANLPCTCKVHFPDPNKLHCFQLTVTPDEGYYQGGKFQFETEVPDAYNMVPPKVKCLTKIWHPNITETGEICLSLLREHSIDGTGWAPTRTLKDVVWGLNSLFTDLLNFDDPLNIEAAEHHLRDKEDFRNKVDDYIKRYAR

T2: UBE2F residues 26-185 (UBE2F core) (UniProt Q969M7 26-185)
T2 construct: UBE2F, residues 26-185 (UBE2F core); Unlabelled when added to 15N RBX2 RING; 15N-labelled when RBX2 RING was added to it; source: E. coli BL21(DE3)-Star or BL21(DE3), purified (Ni-NTA, TEV cleavage, SEC)
T2 sequence (looked up): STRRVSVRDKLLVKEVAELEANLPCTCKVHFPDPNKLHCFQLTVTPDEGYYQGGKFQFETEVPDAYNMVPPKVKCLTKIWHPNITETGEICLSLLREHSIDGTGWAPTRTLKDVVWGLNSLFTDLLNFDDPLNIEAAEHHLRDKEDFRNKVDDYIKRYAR

B1: RBX2 RING domain (44-113) (domain or fragment, UniProt Q9UBF6 44-113, looked up)
chain: DVECDTCAICRVQVMDACLRCQAENKQEDCVVVWGECNHSFHNCCMSLWVKQNNRCPLCQQDWVVQRIGK
notes: RBX2 (RING-box protein 2), RING domain, residues 44-113; 15N-labelled when the E2 enzymes were added to it; unlabelled when added to 15N UBE2F core; also called RBX2 core domain; source: E. coli BL21(DE3)-Star or BL21(DE3), with ZnCl2, purified (Ni-NTA, TEV cleavage, SEC)

Experiments:
[1] = molecular target: CUL5/RBX2 complex (UniProt Q93034)
[2] = molecular target: T1, UBE2F, full-length; assay: NMR titration; 15N-HSQC of 50 µM 15N-labelled RBX2 RING with unlabelled E2 added (∼100 µM in Fig. 3D; increasing concentrations in Fig. 5D); 20°C; 100 mM NaCl, 1 mM DTT, 25 mM HEPES pH 7.5; settings: both partners purified
[3] = molecular target: T2, UBE2F residues 26-185 (UBE2F core); assay: as above; settings: both partners purified

Chain of CUL5/RBX2 complex (Q93034 whole entry, one chain of several): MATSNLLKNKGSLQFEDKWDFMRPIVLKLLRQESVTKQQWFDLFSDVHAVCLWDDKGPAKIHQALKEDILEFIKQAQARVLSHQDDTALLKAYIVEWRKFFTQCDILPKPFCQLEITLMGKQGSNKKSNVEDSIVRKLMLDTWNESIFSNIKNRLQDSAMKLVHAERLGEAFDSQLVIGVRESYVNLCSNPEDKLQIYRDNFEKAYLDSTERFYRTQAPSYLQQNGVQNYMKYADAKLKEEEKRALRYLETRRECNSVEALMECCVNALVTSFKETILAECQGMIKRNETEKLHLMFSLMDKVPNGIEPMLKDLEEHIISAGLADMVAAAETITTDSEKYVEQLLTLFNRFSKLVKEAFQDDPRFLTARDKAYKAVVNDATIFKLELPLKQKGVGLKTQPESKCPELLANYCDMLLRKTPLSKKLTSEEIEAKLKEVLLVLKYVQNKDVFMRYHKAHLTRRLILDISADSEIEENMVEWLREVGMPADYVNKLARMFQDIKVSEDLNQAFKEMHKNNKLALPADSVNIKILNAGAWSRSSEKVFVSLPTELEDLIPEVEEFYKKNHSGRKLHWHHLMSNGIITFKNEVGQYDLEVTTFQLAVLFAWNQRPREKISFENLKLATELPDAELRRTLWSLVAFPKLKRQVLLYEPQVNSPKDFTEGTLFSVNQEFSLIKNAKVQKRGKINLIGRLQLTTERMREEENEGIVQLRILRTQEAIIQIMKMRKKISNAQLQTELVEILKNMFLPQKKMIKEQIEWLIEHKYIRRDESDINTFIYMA

Molecule | rate of NEDD8 transfer from UBE2F mutant to CUL5/RBX2 (pulse-chase), against wild-type UBE2F (orders of magnitude (reduction)) [1] | binding result [2] | binding result [3]
UBE2F (N92A) (from UniProt Q969M7 26-185) (enzyme) | 3 |  | 
B1 |  | binds | binds
